B1: humanized anti-EphA4 monoclonal antibody (antibody B) (antibody, human IgG2, V domains shown)
VH: QVQLVESGGGVVQPGRSLRLSCAVSGFSLTRFGVHWVRQAPGKGLEWVAVIWRGGSTDYNAAFMSRLTISKDNSKNTVYLQMNSLRAEDTAVYYCAKESLFGVYYDYGYYSMDYWGQGTTVTVSS
VL: DIQMTQSPSSLSASVGDRVTITCRASQEISGYLSWLQQKPGKAPKRLIYAASTLDSGVPSRFSGSRSGTEYTLTISSLQPEDFATYYCLQYASYPLTFGGGTKVEIKR
notes: expressed in Expi293F cells; also called humanized antibody of antibody A; HK2-42 / L1-8
B2: mouse anti-EphA4 monoclonal antibody (antibody A) (antibody, mouse IgG1, kappa, V domains shown)
VH: QVQLKQSGPSLVQPSQSLSITCTVSGFSLTRYGVHWVRQSPGKGLEWLGVIWRGGSTDYNAAFMSRLSITKDNSKSQVFFKMNSLQADDTAIYYCAKESLFGVYYDYGYYSMDYWGQGTSVTVSS
VL: DIQMTQSPSSLSASLGERVSLTCRASQEISGYLSWLQQKPDGTIKRLIYAASTLDSGVPKRFSGSRSGSDYSLTISSLESEDFADYYCLQYASYPLTFGAGTKLELKR
notes: purified from hybridoma supernatant

What was measured:
[1] = molecular target: T1, mouse EphA4 extracellular region-Fc-His protein (mouse; human, UniProt Q03137 20-547); assay: ELISA; Eph receptor extracellular region-Fc-His captured by anti-6-His antibody, antibody at 10 µg/mL
T1 construct: Used as culture supernatant of transfected cells; not shown: Fc region of human IgG1; histidine tag
Experimental: For antibody B, the evaluation of the binding activity of mouse Eph receptor was carried out according to the following steps.
Rabbit anti-6-His antibodies (Bethyl Laboratories) were coated onto the wells of a 96-well plate (Nunc). After incubating at 4° C. overnight, the wells were blocked at room temperature for 1 hour by 1% Block Ace (DS Pharma Biomedical). After washing 3 times with 0.05% Tween 20/PBS (Thermo […]), each Eph receptor of mouse extracellular region-Fc-His protein (final concentration 1 nM) was seeded into each well, and incubated at room temperature for 1 hour. After washing 3 times, human IgG solution (100 μg/mL, Sigma) and antibody B (10 μg/mL) were supplemented to the wells, and incubated at room temperature for 1 hour. Horseradish peroxidase-labeled goat anti-human Kappa Light Chain antibody (IBL) was added, and incubated at room temperature for 1 hour. After washing 3 times, TMBZ (3,3′,5,5′-tetramethylbenzidine, Sigma) solution was added to the wells, and upon confirmation of modest coloring, an equal amount of quenching solution (1 N H₂SO₄, Wako Pure Chemicals) was added to the wells, and absorbance at 450 nm was read by a microplate reader (PerkinElmer).

[2] = molecular target: T2, mouse EphA4 extracellular region-SEAP-His protein (mouse); assay: ELISA: EphA4 extracellular region-SEAP-His (1 nM) captured on anti-alkaline phosphatase antibody, antibody B titrated with human IgG 100 µg/mL, HRP anti-human IgG, OD450 as % of top concentration
T2 construct: also called mouse EphA4 extracellular region-SEAP-His 10
Experimental: (§1) Anti-alkaline phosphatase antibodies (Thermo […]) were coated onto the wells of a 96-well plate (Nunc). After incubating at 4° C. overnight, the wells were blocked at room temperature for 1 hour by 1% Block Ace (DS Pharma Biomedical). After washing 3 times with 0.05% Tween 20/PBS (Thermo […]), mouse, rat, monkey, and human EphA4 extracellular region-SEAP-His proteins (final concentration 1 nM) were seeded into the wells, and incubated at room temperature for 1 hour. After washing 3 times, human IgG solution (100 μg/mL, Mitsubishi Pharma Corporation) and antibody B (0, 0.00013, 0.00064, 0.0032, 0.016, 0.08, 0.4, 2, 10 μg/mL) were supplemented to the wells, and incubated at room temperature for 1 hour. Horseradish peroxidase-labeled donkey anti-human IgG antibody (Jackson ImmunoResearch Laboratories) was added, and incubated at room, temperature for 1 hour. After washing 3 times, TMBZ (3,3′,5,5′-tetramethylbenzidine, Sigma) solution was added to the wells, and upon confirmation of modest coloring, an equal amount of quenching solution (1 N H₂SO₄, Wako Pure Chemicals) was added to the wells, and absorbance at 450 nm was read by a microplate reader (PerkinElmer).

[3] = molecular target: T3, human EphA4 extracellular region-SEAP-His protein (human, UniProt P54764 20-547); assay: as above
T3 construct: also called human EphA4 extracellular region-SEAP-His 10; not shown: secretory alkaline phosphatase (SEAP); histidine tag
Experimental: as §1

[4] = molecular target: T4, rat EphA4 extracellular region-SEAP-His protein (rat, UniProt D3ZZK3 20-547); assay: as above
T4 construct: extracellular domain; Its preparation is not described; the limits 20-547 are stated for the Fc-His construct of rat EphA4; not shown: secretory alkaline phosphatase (SEAP); histidine tag
Experimental: as §1

[5] = molecular target: T5, monkey EphA4 extracellular region-SEAP-His protein (monkey); assay: as above
T5 construct: Its preparation is not described; not shown: secretory alkaline phosphatase (SEAP); histidine tag
Experimental: as §1

[6] = molecular target: T3, human EphA4 extracellular …; assay: SPR (Biacore T200): human EphA4 extracellular region-SEAP-His captured on anti-His antibody, antibody A 1.6-100 nM as analyte, 1:1 fit
Experimental: (§2) The binding affinity of antibody A against mouse and human EphA4 was determined by surface plasmon resonance (SPR method) employing Biacore T200 (GE Healthcare). First, anti-His antibodies (GE Healthcare, 28-9950-56) were fixed to a sensor chip CM5. Fixation was carried out by amine coupling method employing N-hydroxysuccinimide (NHS) and N-ethyl-N′-(3-dimethylaminopropyl) carbodiimide hydrochloride salt (EDC), and ethanolamine was employed for blocking (the sensor chip and reagents for fixation are all from GE Healthcare). This was diluted with the fixation buffer (10 mM sodium acetate, pH 4.5) to 3.5 μg/mL, and fixed onto the sensor chip according to the protocol accompanying Biacore T200. Mouse or human EphA4 extracellular region-SEAP-His 10 was diluted with the running buffer HBS-EP (GE Healthcare, BR-1001-88), and the solution was sent and captured onto the flow cell for 120 seconds (about 10 RU of captured amount). […] Fitting analysis by 1:1 binding model employing the software accompanying the system, BIA evaluation software, was carried out against the binding reaction curve obtained, and the binding affinity (KD=kd/ka) against mouse and human EphA4 was calculated.

[7] = molecular target: T2, mouse EphA4 extracellular …; assay: SPR (Biacore T200): mouse EphA4 extracellular region-SEAP-His captured on anti-His antibody, antibody A 1.6-100 nM as analyte, 1:1 fit
Experimental: as §2

T2 sequence (chain, as listed by the source limits assumed): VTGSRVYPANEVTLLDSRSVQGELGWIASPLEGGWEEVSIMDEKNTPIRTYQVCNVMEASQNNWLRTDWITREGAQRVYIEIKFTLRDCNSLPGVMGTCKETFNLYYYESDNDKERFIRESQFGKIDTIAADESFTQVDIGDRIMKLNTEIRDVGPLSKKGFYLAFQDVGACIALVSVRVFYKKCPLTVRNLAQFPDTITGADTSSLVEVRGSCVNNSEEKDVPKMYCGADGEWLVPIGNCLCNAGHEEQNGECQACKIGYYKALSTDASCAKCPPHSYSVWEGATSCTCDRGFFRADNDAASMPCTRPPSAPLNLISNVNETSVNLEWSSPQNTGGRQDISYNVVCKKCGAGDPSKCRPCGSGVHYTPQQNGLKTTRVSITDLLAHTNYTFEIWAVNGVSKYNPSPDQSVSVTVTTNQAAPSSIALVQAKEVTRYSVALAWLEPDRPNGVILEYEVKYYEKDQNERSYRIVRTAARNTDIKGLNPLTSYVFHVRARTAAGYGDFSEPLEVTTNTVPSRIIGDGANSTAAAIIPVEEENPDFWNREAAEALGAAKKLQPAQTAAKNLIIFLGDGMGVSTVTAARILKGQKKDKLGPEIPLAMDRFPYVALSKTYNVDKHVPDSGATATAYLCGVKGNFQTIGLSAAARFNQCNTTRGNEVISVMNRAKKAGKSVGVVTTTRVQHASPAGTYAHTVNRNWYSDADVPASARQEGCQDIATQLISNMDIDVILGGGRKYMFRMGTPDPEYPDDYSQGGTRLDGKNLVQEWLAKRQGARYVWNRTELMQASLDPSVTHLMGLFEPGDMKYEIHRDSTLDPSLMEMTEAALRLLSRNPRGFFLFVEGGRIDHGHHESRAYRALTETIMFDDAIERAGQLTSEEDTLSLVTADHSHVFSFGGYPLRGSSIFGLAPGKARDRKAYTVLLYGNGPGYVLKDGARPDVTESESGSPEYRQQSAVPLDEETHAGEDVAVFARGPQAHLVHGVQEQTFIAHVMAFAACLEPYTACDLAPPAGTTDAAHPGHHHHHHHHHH
T3 sequence (P54764 20-547): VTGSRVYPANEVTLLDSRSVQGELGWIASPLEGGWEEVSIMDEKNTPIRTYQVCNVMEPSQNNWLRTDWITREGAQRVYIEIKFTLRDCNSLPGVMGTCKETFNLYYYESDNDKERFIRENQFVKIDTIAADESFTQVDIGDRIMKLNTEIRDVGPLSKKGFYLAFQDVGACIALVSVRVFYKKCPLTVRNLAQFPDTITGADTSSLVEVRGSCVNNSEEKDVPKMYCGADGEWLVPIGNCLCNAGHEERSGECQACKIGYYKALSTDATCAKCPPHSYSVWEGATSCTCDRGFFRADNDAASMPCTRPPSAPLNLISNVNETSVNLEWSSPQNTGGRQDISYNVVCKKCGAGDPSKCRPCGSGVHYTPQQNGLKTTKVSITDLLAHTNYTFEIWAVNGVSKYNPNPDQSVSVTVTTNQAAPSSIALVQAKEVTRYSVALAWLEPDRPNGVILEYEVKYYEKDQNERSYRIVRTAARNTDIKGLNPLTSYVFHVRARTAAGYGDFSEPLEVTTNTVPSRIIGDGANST
T5 sequence (chain, as listed by the source): as the sequence (P54764 20-547) above, with N406S counted along it
T4 sequence (D3ZZK3 entry or part of it): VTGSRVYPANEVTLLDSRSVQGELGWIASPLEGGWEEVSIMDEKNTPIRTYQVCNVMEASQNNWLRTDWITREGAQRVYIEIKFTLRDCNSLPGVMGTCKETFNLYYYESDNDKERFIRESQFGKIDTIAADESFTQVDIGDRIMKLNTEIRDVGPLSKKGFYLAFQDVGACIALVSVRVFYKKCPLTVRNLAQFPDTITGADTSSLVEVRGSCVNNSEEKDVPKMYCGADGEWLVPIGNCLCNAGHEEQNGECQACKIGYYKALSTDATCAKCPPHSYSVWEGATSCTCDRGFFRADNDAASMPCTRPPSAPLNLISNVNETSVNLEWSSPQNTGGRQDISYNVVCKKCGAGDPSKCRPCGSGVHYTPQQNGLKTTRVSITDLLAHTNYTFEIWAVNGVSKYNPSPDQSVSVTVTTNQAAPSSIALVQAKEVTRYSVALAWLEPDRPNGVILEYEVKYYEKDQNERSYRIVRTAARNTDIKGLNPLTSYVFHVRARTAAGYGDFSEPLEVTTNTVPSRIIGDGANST
T1 sequence (Q03137 20-547): as the sequence (P54764 20-547) above, with P59A, N121S, V124G, R250Q, S251N, T270S, K378R, N406S counted along it

Binder | binding result [1] | EC50 (read off the curve) [2] | EC50 (read off the curve) [3] | EC50 (read off the curve) [4] | EC50 (read off the curve) [5] | koff [6] | kon [6] | koff [7] | kon [7]
B1 | binds | ~300 pM | ~300 pM | ~300 pM | ~300 pM | – | – | – | –
B2 | – | – | – | – | – | 0.000448 s⁻¹ | 379000 M⁻¹ s⁻¹ | 0.000433 s⁻¹ | 328000 M⁻¹ s⁻¹

Source: US20240010735A1 (EISAI R AND D MANAGEMENT, published 2024)
